The data set in a line: protease stability score; higher = more stable; yeast display proteolysis, trypsin and chymotrypsin.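 Note: log10 excess protease needed over predicted unfolded state with 0 meaning unfolded.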

The sequence “DEELVKRLKKLLEALESGDEEKVHHMFDPNVRFQVGDKRFHGRERYASTVKREKDEMRNEVTSYRLTATGDKAEMSFRNILDENGSPHDDIQVMHVHVQGDKIKRASIQETR” registered a protease stability score of 0.071.

Take “DEELYKLMEQVIKAWEENDETQLKRLADPNVKVSIGDKRVHGRDQMAEDAKRRKKQLRFNIDIKSYSVHNGRVNARATVHNDVNGQPREDTVNIQMEWSNGQLTNFNMRMDEDFLRKIRS”: the protease stability score was determined as 0.752.

“DEEMEKRWEEWLDAVTTGDESRVREYMDPNVRYNYGDKHYTGREEIAHDTVREVKRIRIEIKTMSNDDQGEHVRVRFNRVKNDNGEPKEEVLVVEFTQENGRITEATQHEDR” gave a protease stability score of -0.004.

With “DEEMLEVVKQLLHAYQNGDEEKVKRLLDPNARVQVGDQVVHGRESYANEVRKERDEIRFDVKITSVKVHNGKIDIKADVHVNINGKPVKFDVIIEYKMEGDKIKQINVQMDPSQWKERES”, the protease stability score was 0.913.

As for “DEEMNKRAKRLVDVLRTGDFREFLEMVDPNARVQIGDKSWHGMEDYVHDLKEKRDQIKMHYEVKHMTAHDGRAHLEIDAEANVNGQPLSFSFTLHLQFQNGRVTHAEYQLDEDRLRKLEQ”, the protease stability score worked out at 0.911.

Turning to “DEENADVIRRFLDAIHTGNPDDARKNADPNAQYKIGDKTYSGMERWVKTLQDQKRHQEIDIKIKHISVKGDKITVEFVVVVNINGRPVSFSAILSAEVKNGKIKHLQYHISEEQKRKVEG”, the protease stability score came to 0.222.

The sequence “DEENAERLKKIFRAVQENDSKQIERNFDPNAEVTYGDKTVTGREEQSREYHKILHEIRVRIQIKHVKVHNGRLSIHAKMDREHNGEPDDATLIVEAHFHNGKATEQQNDVHK” showed a protease stability score of 0.44.

For “DEENAHEAVRIWETGDPQENADLVDPNVHARYGDKKIRGREDMEEFWRRMHHQIDHKDVRDIQVSGNHIEIDMEINVDGVRARYVARYHMDNGKIKSANAEFRDPDEKQDIRRALD”, the protease stability score was found to be 0.275.

Turning to “DEENAKIIENLIRANETNDPDRAVQLADENVDFRIGDRTYRGMDEYATQMAHEFKEIEMRIHLKTFDTQGEKVRLEADVKRTHNGKPESFRAVMVANASNGRVVEIDVQMDK”, the protease stability score came to 0.974.

“DEENAKTLKQQMNQYQSGDEEEVQENVDKDAKFVIGDKRIHGREKYREQVRRELEDIRIDVKIKHLNDKGEKVQVHARLERNHNGRPTDATVDVVVRWHNGRAKEAQFHTDG”: the protease stability score was -0.11.

As to “DEENEDIFRKYLEDLKKGDPKKLKEQFDKDAEVKVGDDVLHGRRSIARTLHEERKEMRVEIEDVKVRAHNGQLEVRFQQTVDHNGRPKTVRARMEVKFHNGRIKHLSVDERE”, the protease stability score is -0.331.

Regarding “DEENEDLLRKFVEALERNDEDKIMEQADPNAELRYGDKHIHGREKMRELVQNREKELRLDVKDFEVDVNNGHARITVENVQETNGRPTTTRYRIDASIHNGRLQKVNITSDK”, the protease stability score came to 0.287.

In the case of “DEENEKFARRYLEALKHNNPHEMQNMIDPNATLNVGDTRIDGDDQAKKFWSKKLQEISISIRKVSVEVSGNRIDIDAEYELEHNGKPDVNRRTVHLNVKNGKITDLKVRHDK”, the protease stability score was -0.063.

“DEENEQLFNEFLKAMEHGDPNRLNQLMDPDVHIRVGDKQIHGREEAAREIVRQMKEQNRHIDSIEVSAENGELTVNVEMFQTHDGKPKKYTYRAKIVFENGKIKHIDRKHSQ” registered a protease stability score of 0.884.

In the case of “DEENHRRATELLRAWKTGDEEELKRQMPPDVHIRVGDQEVHGREQAVKHLAQRRREASFRFKIKEYELQGEKIRIVARAEVHHNGEPQRYVVRLVILYRNGQAEEINQQEDG”, the protease stability score was found to be 1.25.

“DEENHTLAKMWFHAYNKGDEDQVRRMADPNVKIQIGDKVIHGRNDEVRWLKERRDHQRSDIKLDHVSASNGRVQIHFTFTVQHNGKPNTSKQQLSMVFQGDKLKSLHMRTDG” returned a protease stability score of -0.112.

On to “DEENIEQLRRMMTNLNTGDFHKMVNLMDPNARVRYGDRQISGREEVRKEWEKIVKSMHIERQVRSIEDHDGRAYADVELRVNVDGRPFSVRFTVVVEVRNGRVKFLEVRVPEEFMEKLDS”, for which the protease stability score came out at 1.07.

Turning to “DEENIRVYQEMLEAIKEGDQKRVQELVDPNVEAVYGESQVHGREDIARDLRRVREESRRDVTTYKVTDTNGQITINVDFFQTHDGRPTRKEASVHVQITNGKVKFVEMRDDQ”, the protease stability score came out at 0.248.

For the origin of these results see the NTF2 design screens of Basanta et al. (2020).
